The supplement of paper PMC7125110
± gives the standard error. For some of these results: This sample holds only a part of the variants without activity.

B1: glmS ribozyme (parent)
chain: AUAAAAGCGCCAGAACUACAGAAAUGUAGUUGACGAGGAGGAGGUUUAUCGAAUUUUCGGCGGAUGCCUCCAAA

How the values were obtained:
Conditions in all cases: with glucosamine-6-phosphate
glucosamine-6-phosphate [1] = variants of: B1; test: kcat; higher = faster cleavage; RNA array
Summary of the method: (§1)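 In situ transcription by E. coli RNA polymerase produced barcoded ribozyme variants on sequenced MiSeq chips, and a hybridised Cy3 probe tracked them at 37 °C. Glucosamine-6-phosphate was flowed in at 40 μM to 10 mM in HEPES/KCl/Mg(OAc)2 buffer. kcat and KM were taken from weighted Michaelis–Menten fits of kobs values from exponential decay fits.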

glucosamine-6-phosphate [2] = variants of: B1; test: KM; higher = weaker cofactor use; RNA array
Summary of the method: as §1

glucosamine-6-phosphate [3] = variants of: B1; test: self-cleavage kobs at 10000 uM GlcN6P; higher = faster cleavage; RNA array
Summary of the method: as §1

glucosamine-6-phosphate [4] = variants of: B1; test: self-cleavage kobs at 160 uM GlcN6P; higher = faster cleavage; RNA array
Summary of the method: as §1

glucosamine-6-phosphate [5] = variants of: B1; test: self-cleavage kobs at 2500 uM GlcN6P; higher = faster cleavage; RNA array
Summary of the method: as §1

glucosamine-6-phosphate [6] = variants of: B1; test: self-cleavage kobs at 40 uM GlcN6P; higher = faster cleavage; RNA array
Summary of the method: as §1

glucosamine-6-phosphate [7] = variants of: B1; test: self-cleavage kobs at 640 uM GlcN6P; higher = faster cleavage; RNA array
Summary of the method: as §1

Variant | kcat (glucosamine-6-phosphate [1]) | KM (glucosamine-6-phosphate [2]) | self-cleavage kobs at 10000 uM GlcN6P (glucosamine-6-phosphate [3]) | self-cleavage kobs at 160 uM GlcN6P (glucosamine-6-phosphate [4]) | self-cleavage kobs at 2500 uM GlcN6P (glucosamine-6-phosphate [5]) | self-cleavage kobs at 40 uM GlcN6P (glucosamine-6-phosphate [6]) | self-cleavage kobs at 640 uM GlcN6P (glucosamine-6-phosphate [7])
A64U U69C | 5.01e-05 ± 2.7e-06 s⁻¹ | 1050 ± 310 µM | 4.48e-05 ± 1.3e-05 s⁻¹ | – | – | – | –
A64U U69G | 4.17e-05 ± 1.2e-05 s⁻¹ | – | – | 4.51e-05 ± 1.8e-05 s⁻¹ | 5.01e-05 ± 1.9e-05 s⁻¹ | – | –
A64G C70U | 0.00369 ± 0.001 s⁻¹ | 2630 ± 1000 µM | 0.00298 ± 0.00027 s⁻¹ | 0.000149 ± 2.2e-05 s⁻¹ | 0.00162 ± 0.00027 s⁻¹ | 7.77e-05 ± 7.5e-06 s⁻¹ | 0.000786 ± 7.7e-05 s⁻¹
U65A C70A | 7.41e-05 ± 5e-06 s⁻¹ | 128 ± 49 µM | 8.15e-05 ± 1.3e-05 s⁻¹ | 4.4e-05 ± 1.4e-05 s⁻¹ | 6.44e-05 ± 1.3e-05 s⁻¹ | – | 5.79e-05 ± 1.2e-05 s⁻¹
A12C A36U | – | 56.2 ± 26 µM | – | – | – | – | –
A64U G66A | 0.000113 ± 1.2e-05 s⁻¹ | 3460 ± 930 µM | 8.32e-05 ± 1e-05 s⁻¹ | – | 4.95e-05 ± 8.6e-06 s⁻¹ | < 1e-05 s⁻¹ | –
C16U G66A | – | 1520 ± 640 µM | 0.0329 ± 0.014 s⁻¹ | 0.00133 ± 0.00023 s⁻¹ | 0.00873 ± 0.0019 s⁻¹ | 0.000448 ± 9.7e-05 s⁻¹ | 0.00417 ± 0.00068 s⁻¹
U65G C67G | 0.00141 ± 6.7e-05 s⁻¹ | 1630 ± 120 µM | 0.00122 ± 0.00014 s⁻¹ | 0.00012 ± 1.6e-05 s⁻¹ | 0.00082 ± 0.00011 s⁻¹ | 3.46e-05 ± 6.7e-06 s⁻¹ | 0.000419 ± 4.6e-05 s⁻¹
U65G C67U | 0.00306 ± 0.00057 s⁻¹ | 3590 ± 950 µM | 0.00248 ± 0.00025 s⁻¹ | 0.000142 ± 1.8e-05 s⁻¹ | 0.00101 ± 0.00014 s⁻¹ | 3.92e-05 ± 7.9e-06 s⁻¹ | 0.000459 ± 5.7e-05 s⁻¹
C67U C70U C71U | 1.14e-05 ± 1.2e-06 s⁻¹ | 339 ± 160 µM | – | – | – | – | –
G66C U69G | 5.5e-05 ± 1.9e-05 s⁻¹ | – | – | 4.18e-05 ± 1.2e-05 s⁻¹ | 6.24e-05 ± 1.2e-05 s⁻¹ | – | 8.02e-05 ± 1.2e-05 s⁻¹
U65C G66A | 0.000598 ± 0.00017 s⁻¹ | – | 0.000416 ± 7.9e-05 s⁻¹ | – | 0.000323 ± 0.00014 s⁻¹ | – | 0.000112 ± 3.9e-05 s⁻¹
G66U C71U | 0.00186 ± 0.00045 s⁻¹ | 2150 ± 760 µM | 0.0014 ± 0.00014 s⁻¹ | 0.000107 ± 1.4e-05 s⁻¹ | 0.00174 ± 0.00026 s⁻¹ | 3.7e-05 ± 8.7e-06 s⁻¹ | 0.000471 ± 4.1e-05 s⁻¹
G66U C71A | 0.000234 ± 2.4e-05 s⁻¹ | 1020 ± 250 µM | 0.000202 ± 1.9e-05 s⁻¹ | 3.4e-05 ± 1e-05 s⁻¹ | 0.000205 ± 2.4e-05 s⁻¹ | – | 8.54e-05 ± 8.7e-06 s⁻¹
C68G C70U | 2.04e-05 ± 6.3e-06 s⁻¹ | – | – | – | – | – | 3.32e-05 ± 1.3e-05 s⁻¹
U69A C70U | 6.79e-05 ± 5.4e-06 s⁻¹ | – | 6.03e-05 ± 7.8e-06 s⁻¹ | 3.52e-05 ± 1e-05 s⁻¹ | 7.15e-05 ± 7.1e-06 s⁻¹ | – | 4.97e-05 ± 8.2e-06 s⁻¹
U69A C70A | 3.8e-05 ± 4.6e-06 s⁻¹ | – | 3.27e-05 ± 9.4e-06 s⁻¹ | – | 4.37e-05 ± 1.1e-05 s⁻¹ | – | –

Variant | kcat (glucosamine-6-phosphate [1]) | KM (glucosamine-6-phosphate [2]) | self-cleavage kobs at 10000 uM GlcN6P (glucosamine-6-phosphate [3]) | self-cleavage kobs at 160 uM GlcN6P (glucosamine-6-phosphate [4]) | self-cleavage kobs at 2500 uM GlcN6P (glucosamine-6-phosphate [5]) | self-cleavage kobs at 40 uM GlcN6P (glucosamine-6-phosphate [6]) | self-cleavage kobs at 640 uM GlcN6P (glucosamine-6-phosphate [7])
U65A C68A | 8.88e-05 ± 1.5e-05 s⁻¹ | – | 7.53e-05 ± 8.6e-06 s⁻¹ | 5.78e-05 ± 1.6e-05 s⁻¹ | 0.00015 ± 2.2e-05 s⁻¹ | – | 8.74e-05 ± 1.1e-05 s⁻¹
C71A | 0.0153 ± 0.0014 s⁻¹ | 2490 ± 360 µM | 0.0124 ± 0.0006 s⁻¹ | 0.00104 ± 7.6e-05 s⁻¹ | 0.00761 ± 0.00039 s⁻¹ | 0.00092 ± 0.0004 s⁻¹ | 0.00298 ± 0.00014 s⁻¹
C71G | 0.0034 ± 0.00063 s⁻¹ | 1460 ± 470 µM | 0.00313 ± 0.00019 s⁻¹ | 0.00041 ± 3.6e-05 s⁻¹ | 0.00218 ± 0.00013 s⁻¹ | 0.000157 ± 1.8e-05 s⁻¹ | 0.000926 ± 4.6e-05 s⁻¹
A64C U65A | 2.96e-05 ± 5.1e-06 s⁻¹ | – | – | < 1e-05 s⁻¹ | – | < 1e-05 s⁻¹ | –
G63A C71A | < 1e-05 s⁻¹ | – | – | – | – | – | –
C68G U69G | 2.17e-05 ± 5e-06 s⁻¹ | – | – | – | 2.65e-05 ± 1.2e-05 s⁻¹ | – | –
C68G U69A | 1.57e-05 ± 5.7e-06 s⁻¹ | – | – | – | – | – | –
U69C | 0.00361 ± 0.00043 s⁻¹ | 201 ± 40 µM | – | 0.00145 ± 0.00011 s⁻¹ | 0.00383 ± 0.00039 s⁻¹ | 0.000631 ± 3.9e-05 s⁻¹ | 0.00268 ± 0.0002 s⁻¹
C67U | 0.0229 ± 0.0033 s⁻¹ | 1910 ± 390 µM | 0.0215 ± 0.00087 s⁻¹ | 0.0016 ± 0.00012 s⁻¹ | 0.0117 ± 0.00055 s⁻¹ | 0.000527 ± 1.7e-05 s⁻¹ | 0.00529 ± 0.0002 s⁻¹
C67G | 0.00185 ± 0.00017 s⁻¹ | 2390 ± 300 µM | 0.00145 ± 3.7e-05 s⁻¹ | 0.000109 ± 2.8e-06 s⁻¹ | 0.00108 ± 3.9e-05 s⁻¹ | 3.28e-05 ± 1e-06 s⁻¹ | 0.00046 ± 4e-05 s⁻¹
C67A | 0.0168 ± 0.0027 s⁻¹ | 1730 ± 380 µM | 0.0155 ± 0.00076 s⁻¹ | 0.00132 ± 8.4e-05 s⁻¹ | 0.0101 ± 0.00044 s⁻¹ | 0.000434 ± 1.5e-05 s⁻¹ | 0.004 ± 0.00015 s⁻¹
C68U U69G C70U | 1.34e-05 ± 6e-06 s⁻¹ | – | – | – | – | – | –
C67A C68A | 3.56e-05 ± 6.8e-06 s⁻¹ | – | 3.61e-05 ± 9.6e-06 s⁻¹ | – | 2.46e-05 ± 1e-05 s⁻¹ | – | 5.08e-05 ± 1.2e-05 s⁻¹
A64G C71U | 0.00692 ± 0.0014 s⁻¹ | 2040 ± 540 µM | 0.00552 ± 0.00084 s⁻¹ | 0.000417 ± 4.5e-05 s⁻¹ | 0.00386 ± 0.00036 s⁻¹ | 0.000158 ± 1.6e-05 s⁻¹ | 0.00177 ± 0.00015 s⁻¹
G29A A64U | – | 593 ± 20 µM | – | – | – | – | –
A64G U69G C71A | 2.3e-05 ± 7.7e-06 s⁻¹ | – | – | – | – | – | –
